# Source: PMC7414852
# Experiments:
# Assay in all cases: cryo-EM structure
# [1] = target: Trypsin-activated Vip3Aa16 toxin (cleaved at K198, both fragments kept together) (Bacillus thuringiensis)
# [2] = target: Vip3Aa16 protoxin (Vegetative Insecticidal Protein 3Aa from Bacillus thuringiensis), residues 10-789 (Bacillus thuringiensis)
# [3] = target: Vip3Aa16 N-terminal trypsin fragment (domain I, to K198) (Bacillus thuringiensis)
substance,measurement,setting,value
"Trypsin-activated Vip3Aa16 toxin (cleaved at K198, both fragments kept together) (complex)",stoichiometry N,[1],4
"Vip3Aa16 protoxin (Vegetative Insecticidal Protein 3Aa from Bacillus thuringiensis), residues 10-789 (natural protein)",stoichiometry N,[2],4
"Vip3Aa16 N-terminal trypsin fragment (domain I, to K198) (domain or fragment)",stoichiometry N,[3],4
